The text below walks through data of PMC5529588, “OsFH15, a class I formin, interacts with microfilaments and microtubules to regulate grain size via affecting cell expansion in rice” (Scientific Reports, 2017).

The target in the test is actin filaments (rabbit muscle actin, polymerized) (rabbit, UniProt P68135 1-377). The test is described as follows: co-sedimentation; high-speed cosedimentation; 3 uM actin (AFs) with 0.25-8 uM FH1FH2; bound against free protein fitted with a hyperbolic function; three independent experiments; methods in the supplement. Particulars: both partners purified.

B1: OsFH15 FH2 (truncated recombinant protein containing the FH2 domain of OsFH15) (domain or fragment)
chain: not shown
notes: OsFH15, class I formin of Oryza sativa, 788 a.a; source: E. coli Transetta (DE3), pET-30a(+), purified (Ni-NTA)
B1 returned a Kd of 1.51 ± 0.07 µM.
